{"source": "patent US20230408517A1", "about": "(BIO TECHNE, published 2023)", "binders": {"B1": {"name": "1035224 (antibody, V domains shown)", "VH": "EVQLQQSGAEFVRPGALVKLSCKASGFNIKDDYMHWVKQRPEQGLEWIGWIDPENGNSIYDPKFQGKASITADTSSNTAYLQLSSLTSEDTAVYYCARGEYFGSGSFAYWGQGTLVTVSA", "VL": "QIVLTQSPAIMSASPGEKVTISCSASSSVSYMYWYQQKPGSSPKPWIYRTSNLASGVPARFSGSGSGTSYSLTISSMEAEDAATYYCQQYHSYPYMYTFGGGTKLEIK"}, "B2": {"name": "1035753 (antibody, V domains shown)", "VH": "EVQLQQSGAELVRPGALVKLSCKASGFNIKDYYMHWVKQRPEQGLEWIGWIDPENGNTIYDPKFLGKASITADTSSNTAYLQLSSLTSEDTAVYYCARWYYYAMDSWGQGTSVTVSS", "VL": "DIQMTQTTSSLSASLGDRVTISCSASQGISNYLNWYQQKPDGTVKLLIYYTSSLHSGVPSRFSGSGSGTDYSLTISNLEPEDIATYYCQQYSKLPFTFGGGTNLEMK"}}, "key": {"[1]": {"target": "T1, IN v1 variant RBD (R319-F541 with L452R, E484Q) (SARS-CoV-2, UniProt P0DTC2 319-541)", "test": "lateral flow assay: blocking of RBD-AuNP capture by ACE2"}, "[2]": {"target": "T2, IN v2 variant RBD (R319-F541 with L452R, T478K) (SARS-CoV-2, UniProt P0DTC2 319-541)", "test": "lateral flow assay: blocking of RBD-AuNP capture by ACE2"}, "[3]": {"target": "T3, recombinant SARS-CoV-2 spike S1 RBD (R319-F541), C-terminal 6-His (SARS-CoV-2, UniProt P0DTC2 319-541)", "test": "flow cytometry, blocking of binding to hACE-2 cells"}, "[4]": {"target": "T4, L452R RBD (R319-F541 with L452R) (SARS-CoV-2, UniProt P0DTC2 319-541)", "test": "dipstick, adsorbed RBD spots, Ab 10 µg/mL, GAM-AuNP"}, "[5]": {"target": "T3, recombinant SARS-CoV-2 spike S1 RBD …", "test": "sandwich dipstick, detector Ab4-AuNP"}, "[6]": {"target": "T5, UK variant RBD (R319-F541 with N501Y), C-terminal 6-His (SARS-CoV-2, UniProt P0DTC2 319-541)", "test": "sandwich dipstick, detector Ab4-AuNP"}, "[7]": {"target": "T6, BR P.1 variant RBD (R319-F541 with K417T, E484K, N501Y), C-terminal 6-His (SARS-CoV-2, UniProt P0DTC2 319-541)", "test": "sandwich dipstick, detector Ab4-AuNP"}, "[8]": {"target": "T7, SA variant RBD (R319-F541 with K417N, E484K, N501Y), C-terminal 6-His (SARS-CoV-2, UniProt P0DTC2 319-541)", "test": "sandwich dipstick, detector Ab4-AuNP"}, "[9]": {"target": "T3, recombinant SARS-CoV-2 spike S1 RBD …", "test": "flow cytometry, blocking of binding to hACE-2 cells", "remark": "listed apart in the source"}, "[10]": {"target": "T3, recombinant SARS-CoV-2 spike S1 RBD …", "test": "sandwich dipstick, detector Ab5-AuNP"}, "[11]": {"target": "T5, UK variant RBD (R319-F541 with N501Y), …", "test": "sandwich dipstick, detector Ab5-AuNP"}, "[12]": {"target": "T6, BR P.1 variant RBD (R319-F541 with …)", "test": "sandwich dipstick, detector Ab5-AuNP"}, "[13]": {"target": "T7, SA variant RBD (R319-F541 with K417N, …)", "test": "sandwich dipstick, detector Ab5-AuNP"}, "[14]": {"target": "T3, recombinant SARS-CoV-2 spike S1 RBD …", "test": "lateral flow NC50, RBD-AuNP vs immobilised ACE2"}, "[15]": {"target": "T5, UK variant RBD (R319-F541 with N501Y), …", "test": "lateral flow NC50, RBD-AuNP vs immobilised ACE2"}, "[16]": {"target": "T6, BR P.1 variant RBD (R319-F541 with …)", "test": "lateral flow NC50, RBD-AuNP vs immobilised ACE2"}, "[17]": {"target": "T7, SA variant RBD (R319-F541 with K417N, …)", "test": "lateral flow NC50, RBD-AuNP vs immobilised ACE2"}, "[18]": {"target": "T6, BR P.1 variant RBD (R319-F541 with …)", "test": "flow cytometry, blocking of binding to hACE-2 cells"}, "[19]": {"target": "T2, IN v2 variant RBD (R319-F541 with …)", "test": "flow cytometry, blocking of binding to hACE-2 cells"}, "[20]": {"target": "rSARS2-B.1.1.7 S aa16-1211 2x aa mut., C-His (SARS-CoV-2, UniProt P0DTC2 16-1211)", "test": "flow cytometry, blocking of binding to hACE-2 cells"}, "[21]": {"target": "rSARS2-B.1.617.2 S aa16-1211 10+4x aa mut., C-His (SARS-CoV-2, UniProt P0DTC2 16-1211)", "test": "flow cytometry, blocking of binding to hACE-2 cells"}, "[22]": {"target": "rSARS2-B.1.1.7 S aa16-1211 4x aa mut., C-His (SARS-CoV-2, UniProt P0DTC2 16-1211)", "test": "flow cytometry, blocking of binding to hACE-2 cells"}, "[23]": {"target": "rSARS2 RBD aa319-541, N439K, C-His (SARS-CoV-2, UniProt P0DTC2 319-541)", "test": "flow cytometry, blocking of binding to hACE-2 cells"}, "[24]": {"target": "T478K RBD (R319-F541 with T478K) (SARS-CoV-2, UniProt P0DTC2 319-541)", "test": "lateral flow NC50, RBD-AuNP vs immobilised ACE2"}, "[25]": {"target": "T3, recombinant SARS-CoV-2 spike S1 RBD …", "test": "lateral flow NC50, RBD-AuNP vs immobilised ACE2", "remark": "listed apart in the source"}, "[26]": {"target": "T5, UK variant RBD (R319-F541 with N501Y), …", "test": "lateral flow NC50, RBD-AuNP vs immobilised ACE2", "remark": "listed apart in the source"}, "[27]": {"target": "K417E RBD (R319-F541 with K417E) (SARS-CoV-2, UniProt P0DTC2 319-541)", "test": "lateral flow NC50, RBD-AuNP vs immobilised ACE2"}, "[28]": {"target": "T6, BR P.1 variant RBD (R319-F541 with …)", "test": "lateral flow NC50, RBD-AuNP vs immobilised ACE2", "remark": "listed apart in the source"}, "[29]": {"target": "T7, SA variant RBD (R319-F541 with K417N, …)", "test": "lateral flow NC50, RBD-AuNP vs immobilised ACE2", "remark": "listed apart in the source"}, "[30]": {"target": "BR P.2 variant RBD (R319-F541 with E484K) (SARS-CoV-2, UniProt P0DTC2 319-541)", "test": "lateral flow NC50, RBD-AuNP vs immobilised ACE2"}, "[31]": {"target": "T4, L452R RBD (R319-F541 with L452R)", "test": "lateral flow assay: blocking of RBD-AuNP capture by ACE2"}, "[32]": {"target": "T1, IN v1 variant RBD (R319-F541 with …)", "test": "lateral flow assay: blocking of RBD-AuNP capture by ACE2", "remark": "listed apart in the source"}, "[33]": {"target": "T2, IN v2 variant RBD (R319-F541 with …)", "test": "lateral flow assay: blocking of RBD-AuNP capture by ACE2", "remark": "listed apart in the source"}}, "note": "Where two headings read alike, the source gives them in different places.", "data": [{"binder": "B1", "values": [{"measurement": "binding result", "setting": "[1]", "value": "no binding (tested: 10 µg/mL)"}, {"measurement": "binding result", "setting": "[2]", "value": "no binding (tested: 10 µg/mL)"}, {"measurement": "percent blocking", "setting": "[3]", "value": 99.1, "unit": "%"}, {"measurement": "binding result", "setting": "[4]", "value": "no binding (tested: 10 µg/mL)"}, {"measurement": "detection sensitivity", "setting": "[5]", "value": 0.01, "unit": "µg/mL"}, {"measurement": "detection sensitivity", "setting": "[6]", "value": 0.01, "unit": "µg/mL"}, {"measurement": "detection sensitivity", "setting": "[7]", "value": 0.01, "unit": "µg/mL"}, {"measurement": "detection sensitivity", "setting": "[8]", "value": 0.01, "unit": "µg/mL"}, {"measurement": "percent blocking", "setting": "[9]", "value": 99.1, "unit": "%"}, {"measurement": "detection sensitivity", "setting": "[10]", "value": 0.001, "unit": "µg/mL"}, {"measurement": "detection sensitivity", "setting": "[11]", "value": 0.001, "unit": "µg/mL"}, {"measurement": "detection sensitivity", "setting": "[12]", "value": 0.001, "unit": "µg/mL"}, {"measurement": "detection sensitivity", "setting": "[13]", "value": 0.001, "unit": "µg/mL"}, {"measurement": "IC50", "setting": "[14]", "value": 0.66, "unit": "µg/mL"}, {"measurement": "IC50", "setting": "[15]", "value": 2.72, "unit": "µg/mL"}, {"measurement": "IC50", "setting": "[16]", "value": 1.11, "unit": "µg/mL"}, {"measurement": "IC50", "setting": "[17]", "value": 1.14, "unit": "µg/mL"}, {"measurement": "percent blocking", "setting": "[18]", "value": 88, "unit": "%"}, {"measurement": "percent blocking", "setting": "[19]", "value": 0, "unit": "%"}, {"measurement": "percent blocking", "setting": "[20]", "value": 33.9, "unit": "%"}, {"measurement": "percent blocking", "setting": "[21]", "value": 0, "unit": "%"}, {"measurement": "percent blocking", "setting": "[22]", "value": 74.1, "unit": "%"}, {"measurement": "percent blocking", "setting": "[23]", "value": 96.1, "unit": "%"}, {"measurement": "IC50", "setting": "[24]", "value": 0.76, "unit": "µg/mL"}, {"measurement": "IC50", "setting": "[25]", "value": 0.66, "unit": "µg/mL"}, {"measurement": "IC50", "setting": "[26]", "value": 2.72, "unit": "µg/mL"}, {"measurement": "IC50", "setting": "[27]", "value": 0.38, "unit": "µg/mL"}, {"measurement": "IC50", "setting": "[28]", "value": 1.11, "unit": "µg/mL"}, {"measurement": "IC50", "setting": "[29]", "value": 1.14, "unit": "µg/mL"}, {"measurement": "IC50", "setting": "[30]", "value": 0.54, "unit": "µg/mL"}]}, {"binder": "B2", "values": [{"measurement": "percent blocking", "setting": "[3]", "value": 94.7, "unit": "%"}, {"measurement": "detection sensitivity", "setting": "[5]", "value": 0.01, "unit": "µg/mL"}, {"measurement": "detection sensitivity", "setting": "[6]", "value": 0.01, "unit": "µg/mL"}, {"measurement": "detection sensitivity", "setting": "[7]", "value": 0.01, "unit": "µg/mL"}, {"measurement": "detection sensitivity", "setting": "[8]", "value": 0.01, "unit": "µg/mL"}, {"measurement": "percent blocking", "setting": "[9]", "value": 94.7, "unit": "%"}, {"measurement": "binding result", "setting": "[31]", "value": "no binding (tested: 10 µg/mL)"}, {"measurement": "binding result", "setting": "[32]", "value": "no binding (tested: 10 µg/mL)"}, {"measurement": "binding result", "setting": "[33]", "value": "no binding (tested: 10 µg/mL)"}, {"measurement": "detection sensitivity", "setting": "[10]", "value": 0.001, "unit": "µg/mL"}, {"measurement": "detection sensitivity", "setting": "[11]", "value": 0.001, "unit": "µg/mL"}, {"measurement": "detection sensitivity", "setting": "[12]", "value": 0.001, "unit": "µg/mL"}, {"measurement": "detection sensitivity", "setting": "[13]", "value": 0.001, "unit": "µg/mL"}, {"measurement": "IC50", "setting": "[14]", "value": 1.66, "unit": "µg/mL"}, {"measurement": "IC50", "setting": "[15]", "value": 1.51, "unit": "µg/mL"}, {"measurement": "IC50", "setting": "[16]", "value": 2.21, "unit": "µg/mL"}, {"measurement": "IC50", "setting": "[17]", "value": 3.19, "unit": "µg/mL"}, {"measurement": "percent blocking", "setting": "[18]", "value": 90.4, "unit": "%"}, {"measurement": "percent blocking", "setting": "[19]", "value": 0, "unit": "%"}, {"measurement": "percent blocking", "setting": "[20]", "value": 93.6, "unit": "%"}, {"measurement": "percent blocking", "setting": "[21]", "value": 0, "unit": "%"}, {"measurement": "percent blocking", "setting": "[22]", "value": 81.2, "unit": "%"}, {"measurement": "percent blocking", "setting": "[23]", "value": 96.2, "unit": "%"}, {"measurement": "IC50", "setting": "[24]", "value": 2.29, "unit": "µg/mL"}, {"measurement": "IC50", "setting": "[25]", "value": 1.66, "unit": "µg/mL"}, {"measurement": "IC50", "setting": "[26]", "value": 1.51, "unit": "µg/mL"}, {"measurement": "IC50", "setting": "[27]", "value": 0.89, "unit": "µg/mL"}, {"measurement": "IC50", "setting": "[28]", "value": 2.21, "unit": "µg/mL"}, {"measurement": "IC50", "setting": "[29]", "value": 3.19, "unit": "µg/mL"}, {"measurement": "IC50", "setting": "[30]", "value": 3.22, "unit": "µg/mL"}]}]}
